# Measurements taken from patent publication US20220049002A1 (KINDRED BIOSCIENCES, published 2022).
# T1: Canine IL4R (extracellular domains produced by 293 cells; Examples 16-19) (canine, biotinylated)
# T1 construct: also called biotinylated canine IL4R
# T1 chain: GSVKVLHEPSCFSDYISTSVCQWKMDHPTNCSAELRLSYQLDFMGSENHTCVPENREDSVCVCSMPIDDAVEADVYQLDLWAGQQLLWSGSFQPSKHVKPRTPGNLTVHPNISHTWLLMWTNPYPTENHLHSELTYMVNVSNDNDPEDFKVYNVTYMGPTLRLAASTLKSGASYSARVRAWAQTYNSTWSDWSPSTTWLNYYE
# T2: Canine IL4R-ECD_C-His6 (processed) (canine, biotinylated through amine chemistry in the ELISA and Octet assays)
# T2 chain: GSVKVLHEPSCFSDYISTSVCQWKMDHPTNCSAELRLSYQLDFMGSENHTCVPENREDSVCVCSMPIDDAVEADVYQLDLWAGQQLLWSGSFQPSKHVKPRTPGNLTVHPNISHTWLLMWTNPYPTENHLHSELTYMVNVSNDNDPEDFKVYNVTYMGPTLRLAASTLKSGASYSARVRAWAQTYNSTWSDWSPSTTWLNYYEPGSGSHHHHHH
# What was measured:
# [1] = target: T1, Canine IL4R (extracellular domains …); assay: method not stated (binding affinity to canine IL4R)
# [2] = target: Canine IL4R-ECD_C-HuFc_His6 (processed) (canine); assay: BLI (Octet): canine IL4R-ECD_C-HuFc_His6 on anti-human Fc tips
# Description: An alternative binding assay was performed also using an Octet Biosensor. Canine IL4R-ECD_C-HuFc_His6 (SEQ ID NO: 109) was captured on anti-human Fc-bound sensor tips. The association of either Clone B or I antibody and canine IL4R-ECD_C-HuFc_His6 was monitored for 600 seconds. Dissociation was monitored for 600 seconds. The buffer for dilutions and all binding steps was 20 mM phosphate, 150 mM NaCl, pH 7.2. […] In addition, amine conjugation may affect the affinity of canine IL4R-ECD_C-His6 to interact with Clone B and I antibodies.
# [3] = target: T2, Canine IL4R-ECD_C-His6 (processed); assay: BLI (Octet): biotinylated canine IL4R-ECD_C-His6 on streptavidin tips, 1:1 model
# Description: The binding analysis was performed using an Octet Biosensor as follows. Briefly, canine IL4R-ECD_C-His6 (SEQ ID NO: 107) was biotinylated through amine chemistry. The free unreacted biotin was removed by extensive dialysis. Biotinylated canine IL4R-ECD_C-His6 was captured on streptavidin sensor tips. The association of either Clone B or I antibody and canine IL4R-ECD_C-His6 (25 μg/mL) was monitored for 600 seconds. Dissociation was monitored for 600 seconds. A buffer only blank curve was subtracted to correct for any drift. The data were fit to a 1:1 binding model using ForteBio™ data analysis software to determine the kₒₙ, koff, and the Kd. The buffer for dilutions and all binding steps was 20 mM phosphate, 150 mM NaCl, pH 7.2.
# [4] = target: Canine IL4R-ECD_C-HuFc_His6 (processed) (canine); assay: Western blot
# [5] = target: Human IL4R-ECD_C-HuFc_His6 (processed) (human); assay: Western blot
# [6] = target: T1, Canine IL4R (extracellular domains …); assay: BLI (ForteBio OctetRed): biotinylated canine IL4R on streptavidin tip
# Description: The four mouse antibodies were purified from the hybridoma cell cultures and their affinities to canine IL4R were measured using biosensor (ForteBio OctetRed). Biotinylated canine IL4R was bound to the streptavidin sensor tip. The Kds of the 4 candidates were all less than 10 nM.
# [7] = target: T1, Canine IL4R (extracellular domains …); assay: BLI (ForteBio OctetRed)
# Excerpt: DNA sequences encoding a chimeric antibody were designed for a fusion of murine VH and murine VL to canine constant heavy chain IgG-B and canine constant light chain (kappa). The nucleotide sequences were synthesized chemically and inserted into an expression vector suitable for transfection into a CHO host cell. After transfection into CHO cells, the light chain or heavy chain protein or both were secreted from the cell. All four chimeric canine IgG-B were purified by single step Protein A column chromatography.
# Chain of Human IL4R-ECD_C-HuFc_His6 (processed) (human) (chain, as listed by the source limits assumed): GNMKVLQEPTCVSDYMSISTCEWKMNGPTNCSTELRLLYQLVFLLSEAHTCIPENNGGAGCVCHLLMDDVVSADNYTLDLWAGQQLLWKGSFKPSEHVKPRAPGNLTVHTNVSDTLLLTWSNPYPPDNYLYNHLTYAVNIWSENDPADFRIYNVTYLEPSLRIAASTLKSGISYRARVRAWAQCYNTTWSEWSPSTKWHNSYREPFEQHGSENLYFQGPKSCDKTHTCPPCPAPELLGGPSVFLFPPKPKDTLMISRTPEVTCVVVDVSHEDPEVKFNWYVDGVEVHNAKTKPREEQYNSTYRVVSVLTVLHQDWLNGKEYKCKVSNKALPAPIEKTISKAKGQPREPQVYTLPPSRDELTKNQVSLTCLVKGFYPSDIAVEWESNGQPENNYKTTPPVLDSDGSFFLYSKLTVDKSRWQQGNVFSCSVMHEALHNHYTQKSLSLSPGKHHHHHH
Kd [1] [nM],Kd [6] [nM],Kd [7] [nM],Binder,also measured
≤ 1,–,–,"Caninized Clone M3 antibody, variable HC v1 / variable LC v1 (variant canine IgG-B C1q-, CD16-; canine kappa) (antibody, V domains shown, also called caninized M3 (HC v1)) VH: EVQLVESGGDLVKPAGSLRLSCTVSGFSLSRYSVHWVRQAPGKGLEWLGMIWGGGSTDYNSVVKGRFTISRDNAKNTVYLQMNSLRAEDTAMYYCARTYRGYALDYWGQGTLVTVSS VL: DIVMTQTPLSLSVSPGEPASISCRASQDISNYLNWYLQKAGQSPRLLIYYTSRLQSGVPDRFSGSGSGTDFTLRIGRVEAEDAGIYFCQQANTLPLTFGQGTRLEVRR",–
≤ 1,–,–,"Caninized Clone M3 antibody, variable HC v2 / variable LC v1 (variant canine IgG-B C1q-, CD16-; canine kappa) (antibody, V domains shown, also called caninized M3 (HC v2)) VH: ELTLQESGPGLVKPSQTLSLTCTVSGFSLSRYSVHWIRQPRGRGLELLGMIWGGGSTDYNPAFQGRISITADTAKNQFSLQLSSMTTEDTAVYYCARTYRGYALDYWGQGTLVTVSS VL: DIVMTQTPLSLSVSPGEPASISCRASQDISNYLNWYLQKAGQSPRLLIYYTSRLQSGVPDRFSGSGSGTDFTLRIGRVEAEDAGIYFCQQANTLPLTFGQGTRLEVRR",–
–,–,–,"Clone B antibody (mouse monoclonal anti-canine IL4R) (antibody, mouse IgG1, kappa, V domains shown, Mouse IgG; also called anti-IL4R-mAb Clone B) VH: EVKLEESGPELVKPGASVKMSCKASGYTFTSYVMHWVKQKPGQGLEWIGYINPKNDGTFYNGKFKGKATLTSDKSSSTAYMELSSLTSEDSAVYYCAAFNYGIAYWGQGTLVTVSS VL: IVLTQTPSSLSASLGERVSLTCRASQEISGYLSWLQQKPDGTIKRLIYAASTLDSGVPKRFSGSRSGSDFSLTISSLESEDFADYYCVQYASYPWTFGGGARLEIKR",Kd [2]: ~0.1 nM; Kd [3]: 2.03 nM
–,< 10,–,"M9 mouse monoclonal antibody (anti-canine IL4R) (antibody, V domains shown, Mouse antibody purified from hybridoma culture; also called Clone M9) VH: DVQLVESGGGLVQPGGSRKLSCAASGFTFSSFGMHWVRQAPEKGLEWVAYIRSDSSTIYYADTVKGRFTISRDNPKNTLFLQMTSLRSEDTAMYYCARSGYYGSFSLTYWGQGTLVTVSA VL: EIVLTQSPTTMAASPGEKITITCSASSSVSSNYLHWYQQKPGFSPKLLIYRTSNLPSGVPARFFGSGSGTSYSLTIGTMEAEDVATYYCQQGSGMLTFGAGTKLELK",binding result [4]: binds; binding result [5]: no binding
–,–,< 10,"Murine-canine chimeric M9 antibody (canine IgG-B, canine kappa) (antibody, V domains shown, Murine VH and VL fused to canine constant heavy chain IgG-B and canine constant light chain (kappa); also called chimeric canine IgG-B (M9)) VH: DVQLVESGGGLVQPGGSRKLSCAASGFTFSSFGMHWVRQAPEKGLEWVAYIRSDSSTIYYADTVKGRFTISRDNPKNTLFLQMTSLRSEDTAMYYCARSGYYGSFSLTYWGQGTLVTVSA VL: EIVLTQSPTTMAASPGEKITITCSASSSVSSNYLHWYQQKPGFSPKLLIYRTSNLPSGVPARFFGSGSGTSYSLTIGTMEAEDVATYYCQQGSGMLTFGAGTKLELK",–
≤ 1,–,–,"Caninized Clone M9 antibody, variable HC v1 / variable LC v1 (variant canine IgG-B C1q-, CD16-; canine kappa) (antibody, V domains shown, also called caninized M9 (HC v1)) VH: EVQLVESGGDLVKPGGSLRLSCAASGFTFSSFGMHWVRQAPGKGLEWVAYIRSDSSTIYYADAVKGRFTISRDNAKNTLYLQMNSLRAEDTAMYYCARSGYYGSFSLTYWGQGTLVTVSS VL: DIMLTQTPLSLSVSPGEPASISCSASSSVSSNYLHWYLQKAGQSPRLLIYRTSNLPSGVPDRFSGSGSGTDFTLRIGRVEAEDAGIYYCQQGSGMLTFGQGTRLEVRR",–
≤ 1,–,–,"Caninized Clone M9 antibody, variable HC v2 / variable LC v1 (variant canine IgG-B C1q-, CD16-; canine kappa) (antibody, V domains shown, also called caninized M9 (HC v2)) VH: EVQLVESGGDLVKPGGSLRLSCVASGFTFSSFGMHWVRQAPGKGLQWVAYIRSDSSTIYYADAVKGRFTISRDNAKNTLYLQMNSLRAEDTAMYYCARSGYYGSFSLTYWGQGTLVTVSS VL: DIMLTQTPLSLSVSPGEPASISCSASSSVSSNYLHWYLQKAGQSPRLLIYRTSNLPSGVPDRFSGSGSGTDFTLRIGRVEAEDAGIYYCQQGSGMLTFGQGTRLEVRR",–
–,< 10,–,"M3 mouse monoclonal antibody (anti-canine IL4R) (antibody, V domains shown, Mouse antibody purified from hybridoma culture; also called Clone M3) VH: QVQLKESGPGLVAPSQSLSITCTVSGFSLSRYSVHWVRQPPGKGLEWLGMIWGGGSTDYNSVFKSRLSISKDNSKSQVFLKMNSLQTDDTAMYYCARTYRGYALDYWGQGTSVTVSS VL: DIQMTQTTSSLSASLGDRVTISCRASQDISNYLNWYQQKPDGTVKLLIYYTSRLQSGVPSRFSGSGSGTDYCLTISNLEQEDIATYFCQQANTLPLTFGSGTKLELK",binding result [4]: binds; binding result [5]: no binding
–,< 10,–,"M5 mouse monoclonal antibody (anti-canine IL4R) (antibody, V domains shown, Mouse antibody purified from hybridoma culture; also called Clone M5) VH: QVQLKESGPGLVAPSQSLSITCTVSGFSLSRYSVHWVRQPPGKGLEWLGMIWGGGSTDYNSVFKSRLSISKDNSKSQVFLKMNSLQTDDTAMYYCARTYRGYALDYWGQGTSVTVSS VL: DIQMTQTTSSLSASLGDRVTISCRASQDISNYLNWYQQKPDGTVKLLIYYTSRLQSGVPSRFSGSGSGTDYCLTISNLEQEDIATYFCQQANTLPLTFGSGTKLELK",–
–,–,< 10,"Murine-canine chimeric M3 antibody (canine IgG-B, canine kappa) (antibody, V domains shown, Murine VH and VL fused to canine constant heavy chain IgG-B and canine constant light chain (kappa); also called chimeric canine IgG-B (M3)) VH: QVQLKESGPGLVAPSQSLSITCTVSGFSLSRYSVHWVRQPPGKGLEWLGMIWGGGSTDYNSVFKSRLSISKDNSKSQVFLKMNSLQTDDTAMYYCARTYRGYALDYWGQGTSVTVSS VL: DIQMTQTTSSLSASLGDRVTISCRASQDISNYLNWYQQKPDGTVKLLIYYTSRLQSGVPSRFSGSGSGTDYCLTISNLEQEDIATYFCQQANTLPLTFGSGTKLELK",–
–,–,< 10,"Murine-canine chimeric M5 antibody (canine IgG-B, canine kappa) (antibody, V domains shown, Murine VH and VL fused to canine constant heavy chain IgG-B and canine constant light chain (kappa); also called chimeric canine IgG-B (M5)) VH: QVQLKESGPGLVAPSQSLSITCTVSGFSLSRYSVHWVRQPPGKGLEWLGMIWGGGSTDYNSVFKSRLSISKDNSKSQVFLKMNSLQTDDTAMYYCARTYRGYALDYWGQGTSVTVSS VL: DIQMTQTTSSLSASLGDRVTISCRASQDISNYLNWYQQKPDGTVKLLIYYTSRLQSGVPSRFSGSGSGTDYCLTISNLEQEDIATYFCQQANTLPLTFGSGTKLELK",–
–,< 10,–,"M8 mouse monoclonal antibody (anti-canine IL4R) (antibody, V domains shown, Mouse antibody purified from hybridoma culture; also called Clone M8) VH: QVQLQQSGPELVKPGALVKISCKASGYTFTSYDINWVKQRPGQGLEWIGWIYPGDGSTKYNEKFKGKATLTADKSSSTAYMQLSSLTSEDSAVYFCARSSFVVWGAGTTVTVSS VL: DIQMTQSSSYLSVSLGGRVTITCKASDPINNWLAWYQQKPGNAPRLLISGATSLETGVPSRISGSGSGKDYSLSITSLQTEDIATYYCHQYWSIPYTFGGGTKLEIK",binding result [4]: binds; binding result [5]: no binding
–,–,< 10,"Murine-canine chimeric M8 antibody (canine IgG-B, canine kappa) (antibody, V domains shown, Murine VH and VL fused to canine constant heavy chain IgG-B and canine constant light chain (kappa); also called chimeric canine IgG-B (M8)) VH: QVQLQQSGPELVKPGALVKISCKASGYTFTSYDINWVKQRPGQGLEWIGWIYPGDGSTKYNEKFKGKATLTADKSSSTAYMQLSSLTSEDSAVYFCARSSFVVWGAGTTVTVSS VL: DIQMTQSSSYLSVSLGGRVTITCKASDPINNWLAWYQQKPGNAPRLLISGATSLETGVPSRISGSGSGKDYSLSITSLQTEDIATYYCHQYWSIPYTFGGGTKLEIK",–
